Data published in patent publication US10925971B2, “Methods of treating PRLR positive breast cancer” (Regeneron Pharmaceuticals, Inc., priority 2016, dated 2021).
Changes are numbered by the printed parent chain. Each block holds one molecule with its values, some of them ahead of it.

Tests used:
[1] = biological target: T1, mouse PRLR on HEK293/mPRLR cells (Mus musculus, UniProt Q08501); assay: FACS cell surface binding
T1 construct: HA; expressed in transfected cells; host or cells: HEK293
T1 sequence (Q08501 20-608): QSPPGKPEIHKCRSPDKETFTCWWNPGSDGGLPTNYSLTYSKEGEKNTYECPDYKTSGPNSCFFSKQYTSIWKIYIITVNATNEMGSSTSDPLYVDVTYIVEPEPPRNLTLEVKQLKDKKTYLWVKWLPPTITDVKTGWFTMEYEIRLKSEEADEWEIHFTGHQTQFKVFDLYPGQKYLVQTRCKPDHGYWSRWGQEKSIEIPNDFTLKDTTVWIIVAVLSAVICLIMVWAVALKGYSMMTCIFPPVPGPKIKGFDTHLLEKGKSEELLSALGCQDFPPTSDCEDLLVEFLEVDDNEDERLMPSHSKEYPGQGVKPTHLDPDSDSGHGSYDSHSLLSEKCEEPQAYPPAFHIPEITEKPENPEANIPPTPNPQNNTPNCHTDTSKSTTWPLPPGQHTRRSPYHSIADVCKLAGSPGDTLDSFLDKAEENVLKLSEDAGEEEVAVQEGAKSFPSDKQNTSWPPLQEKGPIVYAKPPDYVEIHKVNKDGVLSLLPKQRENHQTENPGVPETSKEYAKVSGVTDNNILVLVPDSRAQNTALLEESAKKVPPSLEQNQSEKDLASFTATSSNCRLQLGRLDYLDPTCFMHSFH
Protocol: (§1) The ability of anti-PRLR antibodies to selectively bind PRLR expressing cell lines was next determined. Human, monkey Macaca fascicularis, and mouse PRLR constructs with an HA tag were stably introduced into HEK293 cells via Lipofectamine 2000-mediated transfection methodology. Transfectants (HEK293/hPRLR, HEK293/mfPRLR and HEK293/mPRLR) were selected for at least 2 weeks in complete growth media plus G418.
(§2) Cell surface expression of PRLR on 293/hPRLR cells was assessed via FACS analysis. Briefly, 1×10^5 cells were incubated with 10 μg/ml of Control antibody I, or an isotype control for 30 min on ice in antibody dilution buffer. Following two washes with antibody dilution buffer, cells were incubated with 10 μg/ml of PE conjugated anti-human secondary antibodies for 30 min on ice. Following two additional washes, samples were run on a Hypercyt® cytometer and analyzed in ForeCyt™ (IntelliCyt, Albuquerque, N. Mex.). The mean fluorescence intensities (MFI) were expressed as fold change above isotype control levels (background). FACS binding confirmed that Control I selectively bound to 293/hPRLR expressing cells with MFIs that were 30 fold above background (isotype ctrl) levels and less than 2 fold binding on parental cells.
(§3) Next, the anti-PRLR antibodies were tested via FACS for selective binding to the engineered overexpressing PRLR HEK293 cell lines, as well as to non-expressing HEK293 cells and a native PRLR expressing cell line (T47D).

[2] = biological target: T2, monkey PRLR on HEK293/mfPRLR cells (Macaca fascicularis, UniProt A0A2K5WXK1); assay: FACS cell surface binding
T2 construct: HA; expressed in transfected cells; host or cells: HEK293
T2 sequence (A0A2K5WXK1 25-619): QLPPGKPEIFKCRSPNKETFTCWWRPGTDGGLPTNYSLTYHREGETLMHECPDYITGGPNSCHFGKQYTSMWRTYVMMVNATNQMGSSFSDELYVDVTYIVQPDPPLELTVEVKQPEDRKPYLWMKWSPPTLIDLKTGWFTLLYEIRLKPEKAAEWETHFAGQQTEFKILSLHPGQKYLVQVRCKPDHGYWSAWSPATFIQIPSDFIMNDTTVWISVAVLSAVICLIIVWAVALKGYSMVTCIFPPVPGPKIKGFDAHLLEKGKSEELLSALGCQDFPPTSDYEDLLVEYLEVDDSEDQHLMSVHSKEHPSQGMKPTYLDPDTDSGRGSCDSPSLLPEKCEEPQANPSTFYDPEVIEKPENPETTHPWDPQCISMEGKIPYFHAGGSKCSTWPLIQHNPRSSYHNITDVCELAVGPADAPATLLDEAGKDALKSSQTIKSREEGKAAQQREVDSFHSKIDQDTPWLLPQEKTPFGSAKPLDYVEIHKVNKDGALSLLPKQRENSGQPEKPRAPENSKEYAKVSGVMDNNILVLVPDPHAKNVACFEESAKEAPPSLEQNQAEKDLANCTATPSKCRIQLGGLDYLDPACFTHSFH
Protocol: as §1, §2, §3

[3] = biological target: T3, human PRLR on HEK293/hPRLR cells (Homo sapiens, UniProt P16471); assay: FACS cell surface binding
T3 construct: HA; expressed in transfected cells; host or cells: HEK293
T3 sequence (P16471 25-622): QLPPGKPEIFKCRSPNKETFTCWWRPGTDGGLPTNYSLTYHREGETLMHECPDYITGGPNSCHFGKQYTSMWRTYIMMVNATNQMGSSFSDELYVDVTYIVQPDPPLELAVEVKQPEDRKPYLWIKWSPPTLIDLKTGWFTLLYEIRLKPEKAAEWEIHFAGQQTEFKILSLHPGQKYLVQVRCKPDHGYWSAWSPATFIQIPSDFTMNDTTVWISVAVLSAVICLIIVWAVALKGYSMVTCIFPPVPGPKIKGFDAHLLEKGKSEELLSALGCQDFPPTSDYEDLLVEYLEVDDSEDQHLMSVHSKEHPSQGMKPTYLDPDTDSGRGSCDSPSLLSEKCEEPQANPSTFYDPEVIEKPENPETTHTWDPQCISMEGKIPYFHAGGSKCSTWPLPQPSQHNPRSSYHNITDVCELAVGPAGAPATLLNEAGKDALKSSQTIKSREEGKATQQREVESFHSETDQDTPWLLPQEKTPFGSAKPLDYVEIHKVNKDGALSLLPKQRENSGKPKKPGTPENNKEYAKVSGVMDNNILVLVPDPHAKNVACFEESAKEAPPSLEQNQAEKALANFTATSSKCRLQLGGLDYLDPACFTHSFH
Protocol: as §1, §2, §3

[4] = system: Macaca fascicularis PRLR (mfPRLR.mmh; SEQ ID NO:403); assay: Surface plasmon resonance (Biacore T200), antibody-capture format; type: binding; settings: analyte mfPRLR.mmh
Sequence of Macaca fascicularis PRLR (mfPRLR.mmh; SEQ ID NO:403) (as listed by the source): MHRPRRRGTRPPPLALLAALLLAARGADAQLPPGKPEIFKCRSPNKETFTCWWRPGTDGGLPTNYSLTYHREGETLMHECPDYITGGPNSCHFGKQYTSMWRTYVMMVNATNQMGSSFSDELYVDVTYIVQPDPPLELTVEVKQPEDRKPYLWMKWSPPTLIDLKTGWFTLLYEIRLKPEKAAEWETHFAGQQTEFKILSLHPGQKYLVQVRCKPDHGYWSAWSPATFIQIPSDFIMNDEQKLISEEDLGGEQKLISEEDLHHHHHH
Protocol: (§4) Antibodies, expressed as human IgG1 Fc (i.e., “H1H” designations), were captured onto an anti-human Fc sensor surface (mAb-capture format), and soluble monomeric (hPRLR.mmh; SEQ ID NO:401, or Macaca fascicularis (mf) PRLR.mmh; SEQ ID NO:403) or dimeric (hPRLR.mFc; SEQ ID NO:402) PRLR protein was injected over the sensor surface. Measurements were conducted on a T200 Biacore instrument. Kinetic association (ka) and dissociation (kd) rate constants were determined by processing and fitting the data to a 1:1 binding model using Scrubber 2.0 curve fitting software.

[5] = biological target: T4, monomeric human PRLR (hPRLR.mmh; SEQ ID NO:401) (Homo sapiens, UniProt P16471); assay: as above; type: binding; settings: analyte hPRLR.mmh
T4 construct: soluble monomeric (hPRLR.mmh); mmh (myc-myc-hexahistidine) (C)
T4 sequence (P16471 with tags, fused parts or gaps): as the sequence (as listed by the source) above, with V105I, T139A, M154I, T187I, I236T counted along it
Protocol: as §4

[6] = biological target: T5, dimeric human PRLR (hPRLR.mFc; SEQ ID NO:402) (Homo sapiens, UniProt P16471); assay: as above; type: binding; settings: analyte hPRLR.mFc
T5 construct: dimeric (hPRLR.mFc)
T5 sequence (P16471 with tags, fused parts or gaps): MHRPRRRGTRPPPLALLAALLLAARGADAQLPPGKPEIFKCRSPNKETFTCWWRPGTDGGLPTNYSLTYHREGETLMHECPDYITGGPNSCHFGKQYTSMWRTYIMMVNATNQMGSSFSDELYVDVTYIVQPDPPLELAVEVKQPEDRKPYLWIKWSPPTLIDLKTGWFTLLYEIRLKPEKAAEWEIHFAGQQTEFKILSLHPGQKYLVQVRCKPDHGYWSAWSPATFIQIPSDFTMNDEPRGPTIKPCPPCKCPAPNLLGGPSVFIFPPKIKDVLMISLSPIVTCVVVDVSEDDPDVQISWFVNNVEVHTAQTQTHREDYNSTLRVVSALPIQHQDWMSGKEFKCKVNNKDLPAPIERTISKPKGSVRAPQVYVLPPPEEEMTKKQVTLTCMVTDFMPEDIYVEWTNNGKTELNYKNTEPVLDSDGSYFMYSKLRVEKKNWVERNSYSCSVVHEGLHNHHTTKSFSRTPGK
Protocol: as §4

[7] = biological target: T6, native PRLR expressing T47D cells (Homo sapiens, UniProt P16471); assay: FACS cell surface binding
T6 construct: a native PRLR expressing cell line (T47D); endogenous in cells; host or cells: T47D
T6 sequence (P16471 25-622): T3 sequence (P16471 25-622)
Protocol: as §2, §3

HEK293 parental cells = assay: FACS cell surface binding; design: species or system human
Protocol: as §1, §2, §3

- FACS Cell Binding [1]: 2 Fold Above Background
- FACS Cell Binding [2]: 26 Fold Above Background
- FACS Cell Binding [3]: 36 Fold Above Background
- kd ([4]; 25° C.): 0.000208 s⁻¹
- kd ([4]; 37° C.): 0.000558 s⁻¹
- ka ([5]; 25° C.): 692000 M/s
- kd ([5]; 25° C.): 0.000179 s⁻¹
- ka ([5]; 37° C.): 948000 M/s
- kd ([5]; 37° C.): 0.000455 s⁻¹
- ka ([6]; 25° C.): 651000 M/s
- kd ([6]; 25° C.): 6.45e-05 s⁻¹
- ka ([6]; 37° C.): 801000 M/s
- kd ([6]; 37° C.): 0.000103 s⁻¹
- FACS Cell Binding [7]: 38 Fold Above Background
B1: H1H6762P: fully human anti-PRLR antibody, human IgG1 Fc; HCVR/LCVR SEQ ID NOs 2/10 (antibody, V domains shown)
VH: QVQLVESGGGVVQPGRSLRLSCAASGFTFSHYGMVWVRQPPGKGLEWVALISFDGTTKYYADSVKGRFTISRDNSKNTLYLQMNSLRAEDTAVYFCVGAIAAAAFDLWGRGTLVTVSS
VL: EIVMTQSPATLSVSPGERATLSCRASQSVSSDLAWYQQKPGQAPRLLIYSASARATGIPARFTGSGSGTDFTLTISSLQSEDFAVYYCQQYNNWPMYTFGQGTKLEIK
- ka ([4]; 25° C.): 408000 M/s
- ka ([4]; 37° C.): 679000 M/s
- FACS Cell Binding (HEK293 parental cells): 1 Fold Above Background

- FACS Cell Binding [1]: 1 Fold Above Background
- FACS Cell Binding [2]: 26 Fold Above Background
- FACS Cell Binding [3]: 37 Fold Above Background
- kd ([4]; 25° C.): 0.000141 s⁻¹
- kd ([4]; 37° C.): 0.000267 s⁻¹
- ka ([5]; 25° C.): 208000 M/s
- kd ([5]; 25° C.): 0.000127 s⁻¹
- ka ([5]; 37° C.): 339000 M/s
- kd ([5]; 37° C.): 0.000309 s⁻¹
- ka ([6]; 25° C.): 257000 M/s
- kd ([6]; 25° C.): 6.05e-05 s⁻¹
- ka ([6]; 37° C.): 436000 M/s
- kd ([6]; 37° C.): 9.84e-05 s⁻¹
- FACS Cell Binding [7]: 40 Fold Above Background
B2: H1H6781P: fully human anti-PRLR antibody, human IgG1 Fc; HCVR/LCVR SEQ ID NOs 50/58 (antibody, V domains shown)
VH: EVQLVESGGDLVQPGESLRLSCTASGFTFNSYEMNWVRQAPGKGLEWVSYISSSGGTKYYVDSVKGRFTISRDNAKKSLYLQMNSLRADDTALYYCARLNGVDVFDIWGQGTMVTVSS
VL: DIQMTQSPSSLSASVGDRVTITCRASQDIFNYLAWFQQKPGKVPELLISAASTLQSGVPSRFSGSGSGTYFTLTISSLQPEDIATYYCQRYNSAPLTFGGGTKVEIK
- ka ([4]; 25° C.): 143000 M/s
- ka ([4]; 37° C.): 247000 M/s
- FACS Cell Binding (HEK293 parental cells): 1 Fold Above Background

- FACS Cell Binding [1]: 2 Fold Above Background
- FACS Cell Binding [2]: 26 Fold Above Background
- FACS Cell Binding [3]: 37 Fold Above Background
- kd ([4]; 25° C.): 0.000167 s⁻¹
- kd ([4]; 37° C.): 0.00045 s⁻¹
- ka ([5]; 25° C.): 301000 M/s
- kd ([5]; 25° C.): 0.000171 s⁻¹
- ka ([5]; 37° C.): 426000 M/s
- kd ([5]; 37° C.): 0.000484 s⁻¹
- ka ([6]; 25° C.): 263000 M/s
- kd ([6]; 25° C.): 6.07e-05 s⁻¹
- ka ([6]; 37° C.): 456000 M/s
- kd ([6]; 37° C.): 0.000117 s⁻¹
- FACS Cell Binding [7]: 40 Fold Above Background
B3: H1H6785P: fully human anti-PRLR antibody, human IgG1 Fc; HCVR/LCVR SEQ ID NOs 98/106 (antibody, V domains shown)
VH: EVQLVESGGGLVQPGGSLRLSCAASGFTFSSYEMNWVRQAPGKGLEWISYISSRGGTIYYADSIKGRFTIYRDNARNSLYLQMNSLRAEDTAIYYCARLSGVDIFDIWGQGTMVTVSS
VL: B2 VL with D28G, F30S, F36Y, E45K, S49Y, A50F, S65G, Y70D, I83V
- ka ([4]; 25° C.): 227000 M/s
- ka ([4]; 37° C.): 297000 M/s
- FACS Cell Binding (HEK293 parental cells): 1 Fold Above Background
